System: PTRI20 meganuclease (engineered, pCLS17038) (artificial)
Test: cell_activity
Conditions: P. tricornutum; 6.9% with SCTREX2 (p124); HGT up to 0.197% with donor (p171); empty vector 0

GTTTTACGTTGTACGACGTCTAGC (double strand) [PTRI20 target]
activity (% mutagenesis): 0.032

— patent US20160272980
